Here are results for two substances from paper PMC6267984.

The target in this test is Orai1-CFP (UniProt Q96D31).
UniProt Q96D31, sequence (Q96D31 whole entry): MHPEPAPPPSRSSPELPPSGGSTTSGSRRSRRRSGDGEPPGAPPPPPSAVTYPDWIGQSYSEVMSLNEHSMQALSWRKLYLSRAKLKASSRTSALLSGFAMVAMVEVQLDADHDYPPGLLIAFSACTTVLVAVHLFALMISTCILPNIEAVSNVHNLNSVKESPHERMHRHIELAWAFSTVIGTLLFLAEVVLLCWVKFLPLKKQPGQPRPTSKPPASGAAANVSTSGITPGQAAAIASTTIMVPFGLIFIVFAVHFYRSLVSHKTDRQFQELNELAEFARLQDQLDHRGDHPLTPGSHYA

In turn, “STIM1-G379E (from UniProt Q13586 23-685) (natural protein)” had a constitutive Ca2+ entry at rest of 6.6 nM.
The same measure for STIM1-G379E-ΔK (domain or fragment): 3.5 nM.
